Data: publication PMC4737184, “The activity of CouR, a MarR family transcriptional regulator, is modulated through a novel molecular mechanism” (Nucleic Acids Research, 2015)
Changes are numbered by the printed parent chain.

Columns and labels:
[1] = molecular target: T1, CouR (Rhodococcus jostii, UniProt Q0S6D0, R36A); assay: ITC; assay type: binding
T1 construct: gene RHA1_ro05125; full-length

[2] = molecular target: T2, CouR (Rhodococcus jostii, UniProt Q0S6D0, R36A/R38A); assay: ITC; assay type: binding
T2 construct: gene RHA1_ro05125; full-length

[3] = molecular target: T3, CouR (Rhodococcus jostii, UniProt Q0S6D0); assay: ([…] Å) and ITC; EMSA in support; assay type: binding
T3 construct: gene RHA1_ro05125; full-length, homodimer; crystal model residues 4–146
T3 sequence (Q0S6D0 1-146): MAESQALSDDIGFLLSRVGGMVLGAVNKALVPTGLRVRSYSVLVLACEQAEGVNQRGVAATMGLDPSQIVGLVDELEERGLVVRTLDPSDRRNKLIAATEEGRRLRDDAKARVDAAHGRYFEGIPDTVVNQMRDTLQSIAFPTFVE

[4] = molecular target: T4, CouR (Rhodococcus jostii, UniProt Q0S6D0, R38A); assay: ITC; assay type: binding
T4 construct: gene RHA1_ro05125; full-length

[5] = molecular target: T5, CouR (Rhodococcus jostii RHA1, UniProt Q0S6D0 1-146); assay: competition; 1 uM unlabelled vs 1 nM DIG-couRp_couNp, 200 nM CouR; EMSA: 20 mM HEPES pH 7.6, 10 mM (NH4)2SO4, 30 mM KCl, 1 mM DTT, 1 mM EDTA, 0.2% Tween 20, 100 ug/ml poly[d(I-C)], 1 nM probe, 25 C, 20 min; conditions: protein: recombinant; tags: His-tag removed by Factor Xa; extra N-terminal His residue remains; chain copies: 2; blunt
T5 sequence: T3 sequence (Q0S6D0 1-146)

[6] = molecular target: T5, CouR; assay: EMSA; 25-200 nM CouR; EMSA: 20 mM HEPES pH 7.6, 10 mM (NH4)2SO4, 30 mM KCl, 1 mM DTT, 1 mM EDTA, 0.2% Tween 20, 100 ug/ml poly[d(I-C)], 1 nM probe, 25 C, 20 min; conditions: protein: recombinant; tags: His-tag removed by Factor Xa; extra N-terminal His residue remains; chain copies: 2; label: 3' DIG-11-ddUTP (probe); blunt
[7] = molecular target: T6, CouR R38A (Rhodococcus jostii RHA1, UniProt Q0S6D0 1-146, R38A); assay: EMSA; 50 or 200 nM protein; EMSA: 20 mM HEPES pH 7.6, 10 mM (NH4)2SO4, 30 mM KCl, 1 mM DTT, 1 mM EDTA, 0.2% Tween 20, 100 ug/ml poly[d(I-C)], 1 nM probe, 25 C, 20 min; conditions: protein: recombinant; tags: His-tag removed by Factor Xa; extra N-terminal His residue remains; chain copies: 2; label: 3' DIG-11-ddUTP (probe); blunt
T6 sequence: T3 sequence (Q0S6D0 1-146) with R38A

[8] = molecular target: T7, CouR R36A/R38A (Rhodococcus jostii RHA1, UniProt Q0S6D0 1-146, R36A;R38A); assay: as above; conditions: protein: recombinant; tags: His-tag removed by Factor Xa; extra N-terminal His residue remains; chain copies: 2; label: 3' DIG-11-ddUTP (probe); blunt
T7 sequence: T3 sequence (Q0S6D0 1-146) with R36A, R38A

[9] = molecular target: T8, CouR R36A (Rhodococcus jostii RHA1, UniProt Q0S6D0 1-146, R36A); assay: as above; conditions: protein: recombinant; tags: His-tag removed by Factor Xa; extra N-terminal His residue remains; chain copies: 2; label: 3' DIG-11-ddUTP (probe); blunt
T8 sequence: T3 sequence (Q0S6D0 1-146) with R36A

CC(C)(COP(=O)(O)OP(=O)(O)OC[C@H]1O[C@@H](n2cnc3c(N)ncnc32)[C@H](O)[C@@H]1OP(=O)(O)O)[C@@H](O)C(=O)NCCC(=O)NCCSC(=O)/C=C/c1ccc(O)cc1 [p-coumaroyl–CoA] was tested, and the Kd [1] was 28 µM, the Kd [2] was 89 µM and the Kd [3] was 11 µM. For the same molecule, the Kd [4] was 25 µM.

B1: couTp (dsDNA)
DNA 1: CATTAATCATTGAACTTGTCAATGGAAGAGA
DNA 2: TCTCTTCCATTGACAAGTTCAATGATTAATG
B1: binds [5].

B2: couHp (dsDNA)
DNA 1: TATCAATCATTGATAATGTCAATGATTGACT
DNA 2: AGTCAATCATTGACATTATCAATGATTGATA
B2: binds [5].

B3: couRp_couNp_m (dsDNA)
DNA 1: CATTGATGTAACTGAATGAGTTAGATTAAGG
DNA 2: CCTTAATCTAACTCATTCAGTTACATCAATG
B3: no binding [6].

B4: couRp_couNp (dsDNA)
DNA 1: CATTGATGATTGAGAATGTCAATGATTAAGG
DNA 2: CCTTAATCATTGACATTCTCAATCATCAATG
B4: binds [6]; no binding [7]; no binding [8]. B4: no binding [9].
